One substance from patent publication US9359418B2, “Inhibitors of the T cell-specific alternative p38 activation pathway and methods of use” (The United States of America, as represented by the …, priority 2012, dated 2016) can be followed below.

No end group written: not given here.

This experiment addresses recombinant p38α (Homo sapiens, UniProt Q16539). Description: GST pull-down of recombinant p38α by truncated Gadd45α portions. Type of experiment: binding. As to conditions: Gadd45α portions fused to GST, in vitro. The source says:
This example describes a Gadd45α 71-85 polypeptide fused to a cell-penetrating peptide (11R) and its ability to block the T cell-specific alternative p38 activation pathway. The minimal region of Gadd45α capable of binding to p38 was identified by fusing various truncated portions of Gadd45α to GST and using the product to pull down recombinant p38α in vitro.

recombinant p38α, sequence (Q16539 whole entry, the tested form may be a part): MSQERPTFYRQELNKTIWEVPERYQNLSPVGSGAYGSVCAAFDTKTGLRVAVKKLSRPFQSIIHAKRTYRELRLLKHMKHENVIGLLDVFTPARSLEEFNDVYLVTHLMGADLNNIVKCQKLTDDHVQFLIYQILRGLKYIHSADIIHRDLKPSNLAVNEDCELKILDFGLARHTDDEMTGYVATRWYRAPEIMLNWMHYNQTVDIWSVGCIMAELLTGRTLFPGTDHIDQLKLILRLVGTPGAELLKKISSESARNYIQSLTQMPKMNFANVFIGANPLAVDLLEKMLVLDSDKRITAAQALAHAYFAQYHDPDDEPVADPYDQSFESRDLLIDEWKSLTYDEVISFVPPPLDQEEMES

Regarding “71-85 fragment: residues 71-85 of Gadd45α fused to GST, used to pull down recombinant p38α (LQIHFTLIQAFCCEN; cysteine pairing not given here; also: fused to GST; UniProt P24522 71-85, looked up, fragment)”, the “pull down of recombinant p38α” value is listed as “pulled down p38α as well as the full length protein”.
